{"source": "patent US20130324477", "proteins": {"B1": {"name": "recombinant 28 kDa SASPase (SASPase-28), positions 85 to 343 of Q53RT3 (protein)", "chain": "MAGSGARSEEGRRQHAFVPEPFDGANVVPNLWLHSFEVINDLNHWDHITKLRFLKESLRGEALGVYNRLSPQDQGDYGTVKEALLKAFGVPGAAPSHLPKEIVFANSMGKGYYLKGKIGKVPVRFLVDSGAQVSVVHPNLWEEVTDGDLDTLQPFENVVKVANGAEMKILGVWDTAVSLGKLKLKAQFLVANASAEEAIIGTDVLQDHNAILDFEHRTCTLKGKKFRLLPVGGSLEDEFDLELIEEDPSSEEGRQELSH"}}, "biological_target": "T1, recombinant filaggrin-2 (FLG2), positions 2 to 213 of Q5D862, fused to a Thioredoxin-His-S.Tag affinity label, Q5D862", "T1 chain": "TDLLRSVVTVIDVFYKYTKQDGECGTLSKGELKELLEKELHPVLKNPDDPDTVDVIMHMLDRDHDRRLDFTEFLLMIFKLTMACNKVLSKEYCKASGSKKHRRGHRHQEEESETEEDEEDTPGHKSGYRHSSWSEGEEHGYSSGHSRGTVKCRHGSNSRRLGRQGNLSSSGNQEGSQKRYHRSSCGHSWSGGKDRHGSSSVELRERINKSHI", "data": [{"protein": "B1", "values": [{"measurement": "enzymatic activity of SASPase (hydrolysis of Dabcyl-QIDRIMEK-Edans, EDANS fluorescence at 340/490 nm)", "value": "the enzymatic activity of SASPase is significantly increased in the presence of an increasing concentration of FLG2-Hs"}]}]}
